Reference: publication PMC2756588

T1: Cdc25, P04821
T1 sequence (P04821 50-136, looked up): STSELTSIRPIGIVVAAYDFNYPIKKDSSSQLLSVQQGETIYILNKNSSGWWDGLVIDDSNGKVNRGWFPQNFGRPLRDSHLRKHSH

T2: Pin3, Q06449
T2 sequence (Q06449 53-122, looked up): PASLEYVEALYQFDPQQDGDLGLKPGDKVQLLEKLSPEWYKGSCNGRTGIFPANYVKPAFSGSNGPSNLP

T3: Sla1-3, P32790
T3 sequence (P32790 344-424, looked up): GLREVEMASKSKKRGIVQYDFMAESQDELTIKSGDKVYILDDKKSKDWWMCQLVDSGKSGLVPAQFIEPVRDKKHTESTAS

T4: Hse1, P38753
T4 sequence (P38753 208-285, looked up): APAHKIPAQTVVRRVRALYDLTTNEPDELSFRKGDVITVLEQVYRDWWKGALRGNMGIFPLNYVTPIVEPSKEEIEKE

T5: Boi1, P38041
T5 sequence (P38041 1-86, looked up): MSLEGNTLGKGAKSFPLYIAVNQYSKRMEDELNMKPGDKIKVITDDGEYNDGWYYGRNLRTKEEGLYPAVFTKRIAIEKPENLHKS

T6: Lsb1, P53281
T6 sequence (P53281 45-122, looked up): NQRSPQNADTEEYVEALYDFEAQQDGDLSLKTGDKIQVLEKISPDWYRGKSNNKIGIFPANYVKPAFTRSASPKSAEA

T7: Fus1, P11710
T7 sequence (P11710 432-512, looked up): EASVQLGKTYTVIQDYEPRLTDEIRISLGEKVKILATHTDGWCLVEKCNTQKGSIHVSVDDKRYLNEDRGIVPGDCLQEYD

T8: Cyk3, Q07533
T8 sequence (Q07533 1-83, looked up): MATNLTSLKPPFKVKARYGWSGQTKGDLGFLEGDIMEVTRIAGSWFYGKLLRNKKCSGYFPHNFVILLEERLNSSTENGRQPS

T9: Abp1, P15891
T9 sequence (P15891 535-592, looked up): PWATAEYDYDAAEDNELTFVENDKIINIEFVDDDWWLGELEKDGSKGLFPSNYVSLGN

T10: Myo5, Q04439
T10 sequence (Q04439 1072-1160, looked up): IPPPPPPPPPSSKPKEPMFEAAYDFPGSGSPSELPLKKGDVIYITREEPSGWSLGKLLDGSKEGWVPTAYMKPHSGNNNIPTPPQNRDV

T11: Bud14, P27637
T11 sequence (P27637 247-328, looked up): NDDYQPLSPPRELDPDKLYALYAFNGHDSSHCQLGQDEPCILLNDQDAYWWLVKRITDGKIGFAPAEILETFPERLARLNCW

T12: Hof1, Q05080
T12 sequence (Q05080 590-669, looked up): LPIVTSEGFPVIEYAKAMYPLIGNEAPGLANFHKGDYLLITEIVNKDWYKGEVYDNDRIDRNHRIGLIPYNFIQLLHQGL

T13: Bbc1, P47068
T13 sequence (P47068 1-78, looked up): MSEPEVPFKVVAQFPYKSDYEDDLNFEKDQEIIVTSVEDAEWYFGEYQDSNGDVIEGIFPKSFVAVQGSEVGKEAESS

T14: Nbp2, Q12163
T14 sequence (Q12163 103-180, looked up): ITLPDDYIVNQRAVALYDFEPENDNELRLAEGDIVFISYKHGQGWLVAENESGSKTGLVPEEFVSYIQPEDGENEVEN

T15: Bzz1-1, P38822
T15 sequence (P38822 478-572, looked up): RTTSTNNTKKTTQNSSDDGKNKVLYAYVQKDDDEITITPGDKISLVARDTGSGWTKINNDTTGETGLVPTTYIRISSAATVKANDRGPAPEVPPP

T16: Lsb3, P43603
T16 sequence (P43603 385-451, looked up): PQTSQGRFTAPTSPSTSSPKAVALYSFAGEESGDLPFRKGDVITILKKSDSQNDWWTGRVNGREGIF

T17: Lsb4, P32793
T17 sequence (P32793 402-468, looked up): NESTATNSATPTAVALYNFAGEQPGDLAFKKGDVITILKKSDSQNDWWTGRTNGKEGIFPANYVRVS

T18: Bzz1-2, P38822
T18 sequence (P38822 568-633, looked up): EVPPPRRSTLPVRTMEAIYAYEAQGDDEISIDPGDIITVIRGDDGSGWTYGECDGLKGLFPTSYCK

T19: Pex13, P80667
T19 sequence (P80667 295-386, looked up): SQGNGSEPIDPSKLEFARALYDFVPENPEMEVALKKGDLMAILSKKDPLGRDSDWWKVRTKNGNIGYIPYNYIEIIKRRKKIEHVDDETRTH

T20: Sla1-2, P32790
T20 sequence (P32790 60-140, looked up): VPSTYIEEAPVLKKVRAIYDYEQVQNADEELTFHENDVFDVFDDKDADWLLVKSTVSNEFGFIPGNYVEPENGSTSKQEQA

T21: Boi2, P39969
T21 sequence (P39969 32-116, looked up): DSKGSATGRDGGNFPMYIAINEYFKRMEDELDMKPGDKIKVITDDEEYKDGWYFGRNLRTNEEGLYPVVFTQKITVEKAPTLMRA


Target: T1, Cdc25, P04821
Assay: SPOT array
Conditions: median of control spots 969

Binder	SPOT intensity
SKIRPTPRKPSRMAT	35
DKSRPPRPPPKPLHL	0
TSFKGRPKPPKTLKH	2
ALKQKKIPPPFKPHL	0

Target: T2, Pin3, Q06449
Assay: SPOT array
Conditions: median of control spots 2171

Binder	SPOT intensity
SKIRPTPRKPSRMAT	20
DKSRPPRPPPKPLHL	0
TSFKGRPKPPKTLKH	4
ALKQKKIPPPFKPHL	0

Target: T3, Sla1-3, P32790
Assay: SPOT array
Conditions: median of control spots 5475

Binder	SPOT intensity
SKIRPTPRKPSRMAT	21
DKSRPPRPPPKPLHL	0
TSFKGRPKPPKTLKH	2
ALKQKKIPPPFKPHL	0

Target: T4, Hse1, P38753
Assay: SPOT array
Conditions: median of control spots 1727

Binder	SPOT intensity
SKIRPTPRKPSRMAT	19
DKSRPPRPPPKPLHL	36
TSFKGRPKPPKTLKH	2
ALKQKKIPPPFKPHL	0

Target: Bem1-1, P29366
Assay: SPOT array
Conditions: median of control spots 4282

Bem1-1, P29366, sequence (P29366 55-141): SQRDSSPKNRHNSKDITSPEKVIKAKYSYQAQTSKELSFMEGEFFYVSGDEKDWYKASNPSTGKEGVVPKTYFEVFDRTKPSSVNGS

Binder	SPOT intensity
SKIRPTPRKPSRMAT	6
DKSRPPRPPPKPLHL	0
TSFKGRPKPPKTLKH	0
ALKQKKIPPPFKPHL	0

Target: GST
Assay: SPOT array
Conditions: median of control spots 978

Binder	SPOT intensity
SKIRPTPRKPSRMAT	2
DKSRPPRPPPKPLHL	0
TSFKGRPKPPKTLKH	0
ALKQKKIPPPFKPHL	0

Target: T5, Boi1, P38041
Assay: SPOT array
Conditions: median of control spots 1162

Binder	SPOT intensity
SKIRPTPRKPSRMAT	4
DKSRPPRPPPKPLHL	0
TSFKGRPKPPKTLKH	1
ALKQKKIPPPFKPHL	0

Target: T6, Lsb1, P53281
Assay: SPOT array
Conditions: median of control spots 388

Binder	SPOT intensity
SKIRPTPRKPSRMAT	10
DKSRPPRPPPKPLHL	4
TSFKGRPKPPKTLKH	0
ALKQKKIPPPFKPHL	0

Target: T7, Fus1, P11710
Assay: SPOT array
Conditions: median of control spots 1200

Binder	SPOT intensity
SKIRPTPRKPSRMAT	12
DKSRPPRPPPKPLHL	0
TSFKGRPKPPKTLKH	1
ALKQKKIPPPFKPHL	0

Target: Rvs167, P39743
Assay: SPOT array
Conditions: median of control spots 2707

Rvs167, P39743, sequence (P39743 419-482): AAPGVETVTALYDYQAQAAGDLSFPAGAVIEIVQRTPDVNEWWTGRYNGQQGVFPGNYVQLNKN

Binder	SPOT intensity
SKIRPTPRKPSRMAT	148
DKSRPPRPPPKPLHL	0
TSFKGRPKPPKTLKH	0
ALKQKKIPPPFKPHL	0

Target: T8, Cyk3, Q07533
Assay: SPOT array
Conditions: median of control spots 1451

Binder	SPOT intensity
SKIRPTPRKPSRMAT	6
DKSRPPRPPPKPLHL	0
TSFKGRPKPPKTLKH	2
ALKQKKIPPPFKPHL	0

Target: Bem1-2, P29366
Assay: SPOT array
Conditions: median of control spots 4347

Bem1-2, P29366, sequence (P29366 139-227): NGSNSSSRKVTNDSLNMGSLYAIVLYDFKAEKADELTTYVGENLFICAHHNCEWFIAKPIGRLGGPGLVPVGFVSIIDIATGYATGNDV

Binder	SPOT intensity
SKIRPTPRKPSRMAT	50
DKSRPPRPPPKPLHL	57
TSFKGRPKPPKTLKH	0
ALKQKKIPPPFKPHL	0

Target: T9, Abp1, P15891
Assay: SPOT array
Conditions: median of control spots 935

Binder	SPOT intensity
SKIRPTPRKPSRMAT	345
DKSRPPRPPPKPLHL	675
TSFKGRPKPPKTLKH	128
ALKQKKIPPPFKPHL	42

Target: Sho1, P40073
Assay: SPOT array
Conditions: median of control spots 1148

Sho1, P40073, sequence (P40073 287-367): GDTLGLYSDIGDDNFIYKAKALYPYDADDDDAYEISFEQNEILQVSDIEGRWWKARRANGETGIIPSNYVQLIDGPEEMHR

Binder	SPOT intensity
SKIRPTPRKPSRMAT	177
DKSRPPRPPPKPLHL	155
TSFKGRPKPPKTLKH	43
ALKQKKIPPPFKPHL	0

Target: T10, Myo5, Q04439
Assay: SPOT array
Conditions: median of control spots 471

Binder	SPOT intensity
SKIRPTPRKPSRMAT	23
DKSRPPRPPPKPLHL	44
TSFKGRPKPPKTLKH	0
ALKQKKIPPPFKPHL	0

Target: T11, Bud14, P27637
Assay: SPOT array
Conditions: median of control spots 956

Binder	SPOT intensity
SKIRPTPRKPSRMAT	13
DKSRPPRPPPKPLHL	1
TSFKGRPKPPKTLKH	1
ALKQKKIPPPFKPHL	0

Target: T12, Hof1, Q05080
Assay: SPOT array
Conditions: median of control spots 4086

Binder	SPOT intensity
SKIRPTPRKPSRMAT	8
DKSRPPRPPPKPLHL	0
TSFKGRPKPPKTLKH	1
ALKQKKIPPPFKPHL	0

Target: T13, Bbc1, P47068
Assay: SPOT array
Conditions: median of control spots 796

Binder	SPOT intensity
SKIRPTPRKPSRMAT	37
DKSRPPRPPPKPLHL	5
TSFKGRPKPPKTLKH	5
ALKQKKIPPPFKPHL	0

Target: T14, Nbp2, Q12163
Assay: SPOT array
Conditions: median of control spots 357

Binder	SPOT intensity
SKIRPTPRKPSRMAT	44
DKSRPPRPPPKPLHL	0
TSFKGRPKPPKTLKH	0
ALKQKKIPPPFKPHL	0

Target: T15, Bzz1-1, P38822
Assay: SPOT array
Conditions: median of control spots 4446

Binder	SPOT intensity
SKIRPTPRKPSRMAT	6
DKSRPPRPPPKPLHL	36
TSFKGRPKPPKTLKH	0
ALKQKKIPPPFKPHL	0

Target: T16, Lsb3, P43603
Assay: SPOT array
Conditions: median of control spots 406

Binder	SPOT intensity
SKIRPTPRKPSRMAT	124
DKSRPPRPPPKPLHL	216
TSFKGRPKPPKTLKH	0
ALKQKKIPPPFKPHL	0

Target: T17, Lsb4, P32793
Assay: SPOT array
Conditions: median of control spots 397

Binder	SPOT intensity
SKIRPTPRKPSRMAT	162
DKSRPPRPPPKPLHL	177
TSFKGRPKPPKTLKH	0
ALKQKKIPPPFKPHL	0

Target: T18, Bzz1-2, P38822
Assay: SPOT array
Conditions: median of control spots 4538

Binder	SPOT intensity
SKIRPTPRKPSRMAT	16
DKSRPPRPPPKPLHL	1
TSFKGRPKPPKTLKH	11
ALKQKKIPPPFKPHL	0

Target: T19, Pex13, P80667
Assay: SPOT array
Conditions: median of control spots 1341

Binder	SPOT intensity
SKIRPTPRKPSRMAT	40
DKSRPPRPPPKPLHL	144
TSFKGRPKPPKTLKH	3
ALKQKKIPPPFKPHL	0

Target: T20, Sla1-2, P32790
Assay: SPOT array
Conditions: median of control spots 712

Binder	SPOT intensity
SKIRPTPRKPSRMAT	21
DKSRPPRPPPKPLHL	0
TSFKGRPKPPKTLKH	0
ALKQKKIPPPFKPHL	0

Target: Myo3, P36006
Assay: SPOT array
Conditions: median of control spots 468

Binder	SPOT intensity
SKIRPTPRKPSRMAT	50
DKSRPPRPPPKPLHL	160
TSFKGRPKPPKTLKH	0
ALKQKKIPPPFKPHL	0

Target: T21, Boi2, P39969
Assay: SPOT array
Conditions: median of control spots 1161

Binder	SPOT intensity
SKIRPTPRKPSRMAT	3
DKSRPPRPPPKPLHL	0
TSFKGRPKPPKTLKH	0
ALKQKKIPPPFKPHL	0
